Read-outs that look alike come from different tables or passages of the source.

The target of one assay is T1, CCL14_HUMAN (Homo sapiens, UniProt Q16627).
T1 sequence (Q16627 20-93): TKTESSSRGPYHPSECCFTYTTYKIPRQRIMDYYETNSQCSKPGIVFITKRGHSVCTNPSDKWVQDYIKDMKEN
The experiment in a line: Biolayer interferometry (BLI) binding. The gist of the method: (§1)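 Binding was measured by biolayer interferometry with the His-tagged tick protein bound to Ni-NTA sensors. A single-concentration screen used chemokine at 300 nM. Chemokines that bound were retested over multiple doses, and Kd was calculated from fitted curves.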
In general terms: In BLI a coated tip is dipped into the sample, and binding shifts an interference pattern.

For assay [1], the target named is T2, CCL15_HUMAN (Homo sapiens, UniProt Q16663).
T2 sequence (Q16663 22-113): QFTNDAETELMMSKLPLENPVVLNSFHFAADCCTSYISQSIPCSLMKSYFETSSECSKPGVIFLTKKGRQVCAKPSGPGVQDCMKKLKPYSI
The experiment in a line: Biolayer interferometry (BLI) binding. The gist of the method:
as §1

The next assay addresses T3, CCL16_HUMAN (Homo sapiens, UniProt O15467).
T3 sequence (O15467 24-120): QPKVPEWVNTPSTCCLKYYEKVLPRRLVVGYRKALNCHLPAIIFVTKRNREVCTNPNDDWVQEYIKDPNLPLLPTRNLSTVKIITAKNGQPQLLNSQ
The assay can be described thus: Biolayer interferometry (BLI) binding. The gist of the method: as §1

A further assay concerns the target CCL3L1_HUMAN (Homo sapiens, UniProt P16619). The assay can be described thus: Biolayer interferometry (BLI) binding. The gist of the method:
as §1

The target of assay [2] is T4, CCL3_HUMAN (Homo sapiens, UniProt P10147).
T4 sequence (P10147 24-92): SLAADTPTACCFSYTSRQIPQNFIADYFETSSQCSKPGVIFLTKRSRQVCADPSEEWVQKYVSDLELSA
The experiment in a line: Biolayer interferometry (BLI) binding. A digest of the protocol:
as §1

For assay [3], the target named is T5, CCL7_HUMAN (Homo sapiens, UniProt P80098). The assay can be described thus: Biolayer interferometry (BLI) binding. A digest of the protocol: as §1
T5 sequence (P80098 24-99): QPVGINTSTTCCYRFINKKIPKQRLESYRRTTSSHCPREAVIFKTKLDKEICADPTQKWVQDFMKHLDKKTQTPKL
Assay [4] addresses T6, CCL8_HUMAN (Homo sapiens, UniProt P80075).
T6 sequence (P80075 24-99): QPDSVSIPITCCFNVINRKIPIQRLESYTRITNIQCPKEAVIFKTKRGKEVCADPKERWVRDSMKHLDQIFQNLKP
The experiment in a line: Biolayer interferometry (BLI) binding. The gist of the method: as §1

In assay [5] the target is T4, CCL3_HUMAN. The following applies: read-out: Kd, CCL3_HUMAN, previously described evasins; data obtained from publications [20-22,32]; cited from earlier work.
The target of assay [6] is T5, CCL7_HUMAN. The note with it: read-out: Kd, CCL7_HUMAN, previously described evasins; data obtained from publications [20-22,32]; cited from earlier work.
The target of assay [7] is T6, CCL8_HUMAN. The note with it: read-out: Kd, CCL8_HUMAN, previously described evasins; data obtained from publications [20-22,32]; cited from earlier work.
Assay [8] concerns the target T2, CCL15_HUMAN. The note with it: read-out: Kd, CCL15_HUMAN, previously described evasins; data obtained from publications [20-22,32]; cited from earlier work.

Sequence of CCL3L1_HUMAN (P16619 24-93): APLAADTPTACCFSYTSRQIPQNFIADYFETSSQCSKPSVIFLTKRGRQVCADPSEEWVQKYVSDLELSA

B1: P1243_AMBAM: tick CKBP, Amblyomma americanum; AAM-02 stated identical (protein, listed as Amblyomma americanum)
chain: RNHTEDNSTEYYDYEEARCACPARHLNNTNGTVLKLLGCHYFCNGTLCTAPDGYPCYNLTAQQVRTLTTYPNTSCAVGVCMKGTCVKNGTMEQCFKTP
Consider B1, for which the Kd (as a rule, the constant that tells how readily two partners part at equilibrium) was found to be 0.816 nM in the assay with CCL14_HUMAN; 9.61 nM in the assay with CCL15_HUMAN [1]; 0.926 nM with CCL16_HUMAN; 5.05 nM with CCL3L1_HUMAN; 5.3 nM with CCL3_HUMAN [2]; 8.66 nM with CCL7_HUMAN [3]. In addition, the Kd with CCL8_HUMAN [4] (read-out: Kd, CCL8_HUMAN) turned out to be 21.9 nM.

B2: EVASIN4: previously described tick CKBP evasin 4, from Rhipicephalus sanguineus (protein, listed as Rhipicephalus sanguineus)
chain: EVPQMTSSSAPDLEEEDDYTAYAPLTCYFTNSTLGLLAPPNCSVLCNSTTTWFNETSPNNASCLLTVDFLTQDAILQENQPYNCSVGHCDNGTCAGPPRHAQCW
On to B2, for which the Kd with CCL3_HUMAN [5] was 0.06 nM; in the assay with CCL7_HUMAN [6], 0.7 nM; in the assay with CCL8_HUMAN [7], 0.25 nM; with CCL15_HUMAN [8], 2.31 nM.

B3: P672_RHIPU: tick CKBP, Rhipicephalus pulchellus (protein, listed as Rhipicephalus pulchellus)
chain: VCEVSEQEGVGEDNATEDEDYEDFFKPVTCYFANSTVGPLRPPNCTVVCTNNTAWWNDTKSDGGHCYSEYRPEKRTHSREIYNCTIGVCGNGTCIANHTYADCW
Regarding B3, the Kd with CCL14_HUMAN is 5.5 nM; in the assay with CCL15_HUMAN [1], 32 nM; with CCL16_HUMAN it was 3.3 nM; with CCL3L1_HUMAN it was 2.7 nM; with CCL3_HUMAN [2], 2.6 nM; with CCL7_HUMAN [3], 16 nM. Also, the Kd in the assay with CCL8_HUMAN [4] (read-out: Kd for CCL8) was found to be 3.7 nM.

These data come from patent publication US20200247855A1, “THERAPY AND DIAGNOSTICS” (OXFORD UNIVERSITY INNOVATION LIMITED, priority 2017, published 2020).
